Earlier results on one substance are cited in publication PMC5580684.

“And” between values parts separate entries of the source, which are not always exact repeats. Identical values can stand only once.

This series deals with DNA polymerase beta (Homo sapiens) (UniProt P06746).

As for XRCC1 NTD (from UniProt P18887), the Kd is 300 µM and 100 µM.
